Article PMC7413259

Experiments:
Settings in all cases: 5' triphosphate, B1: 50 mM Tris-HCl pH 8.0, 150 mM NaCl, 1 mM MgCl2, 2 mM beta-mercaptoethanol, 10% glycerol, 20 C, B2: same with 100 mM NaCl
[1] = target: T1, ZIKV NS5 MTase domain WT (Zika virus) (UniProt A0A142I5B9); assay: fluorescence titration
[2] = test system: ZIKV NS5 RdRp domain (Zika virus); assay: fluorescence titration
ZIKV NS5 WT (Zika virus) = ZIKV NS5 WT (Zika virus) (UniProt A0A024B7W1); assay: fluorescence titration
[3] = target: T1, ZIKV NS5 MTase domain WT (Zika virus); assay: fluorescence titration; remark: listed apart in the source
[4] = target: T1, ZIKV NS5 MTase domain WT (Zika virus); assay: fluorescence anisotropy

Substance: ZIKV SLA (SLA-F)
- Kd [1]: 0.4 µM
- Kd [2]: 0.53 µM
- Kd (ZIKV NS5 WT (Zika virus)): 0.28 µM
- Kd [3]: 0.59 µM
- Kd [4]: 0.31 µM
